Reference: patent US20210363269A1 (ALX ONCOLOGY, published 2021)

T1: BALB/c mouse SIRP-α D1 domain (mouse (BALB/c strain))
T1 chain: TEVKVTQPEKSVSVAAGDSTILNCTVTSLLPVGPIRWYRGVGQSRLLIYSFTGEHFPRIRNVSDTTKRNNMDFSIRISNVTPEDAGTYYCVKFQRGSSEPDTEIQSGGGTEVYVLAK

T2: C57BL/6 mouse SIRP-α D1 domain (mouse (C57BL/6 strain), UniProt P97797 32-148)
T2 sequence: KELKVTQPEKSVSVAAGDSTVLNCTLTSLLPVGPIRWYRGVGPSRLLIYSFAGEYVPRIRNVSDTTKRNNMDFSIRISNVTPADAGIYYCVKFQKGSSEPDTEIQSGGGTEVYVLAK

T3: NOD mouse SIRP-α D1 domain (mouse (NOD strain))
T3 chain: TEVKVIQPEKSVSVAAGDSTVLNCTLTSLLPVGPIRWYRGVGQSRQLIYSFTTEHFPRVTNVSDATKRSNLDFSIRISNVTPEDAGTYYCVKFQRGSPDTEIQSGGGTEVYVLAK

T4: cynomolgus SIRP-α (cynomolgus monkey, UniProt Q5TFQ8 30-148 (human entry), limits assumed)
T4 construct: also called cyno1
T4 chain: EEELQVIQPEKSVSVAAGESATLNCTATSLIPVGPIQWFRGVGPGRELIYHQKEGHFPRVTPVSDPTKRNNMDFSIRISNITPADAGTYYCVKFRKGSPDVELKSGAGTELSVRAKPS

T5: BL6 mouse SIRP-α (mouse (C57BL/6 strain), UniProt P97797 32-148)
T5 construct: also called C57BL/6
T5 sequence: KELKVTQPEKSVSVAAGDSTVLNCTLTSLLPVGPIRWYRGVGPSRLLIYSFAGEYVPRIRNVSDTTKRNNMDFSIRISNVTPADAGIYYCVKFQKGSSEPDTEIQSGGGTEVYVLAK

T6: BALBc mouse SIRP-α (mouse (BALB/c strain))
T6 chain: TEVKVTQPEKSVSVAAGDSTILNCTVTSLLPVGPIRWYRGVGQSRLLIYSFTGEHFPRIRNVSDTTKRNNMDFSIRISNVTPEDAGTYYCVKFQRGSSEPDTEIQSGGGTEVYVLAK

T7: NOD mouse SIRP-α (mouse (NOD strain))
T7 chain: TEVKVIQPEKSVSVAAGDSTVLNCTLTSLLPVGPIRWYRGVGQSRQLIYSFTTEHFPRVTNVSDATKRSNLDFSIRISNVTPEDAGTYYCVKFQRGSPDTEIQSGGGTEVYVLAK


Tests used:
[1] = molecular target: T1, BALB/c mouse SIRP-α D1 domain; experiment: SPR, antibody immobilised on GLC chip
Description: (§1) All experiments were performed at 25° C. using a SPR-based ProteOn XPR36 biosensor (BioRad, Inc, Hercules, Calif.) equipped with GLC or NLC sensor chips. […] Purification was carried out by standard Protein A affinity column chromatography and eluted antibodies were stored in PBS buffer.
(§2) For the method using GLC chip, the analytes were injected and flowed over anti-SIRPα antibodies immobilized (˜1000 RUs) on GLC chips using Proteon™ Amine Coupling Kit. For the immobilization step, GLC chip was activated with EDAC/Sulpho-NHS 1:1 (Biorad) diluted 1/100 for 300 s at 25 μL/min. Anti-SIRPα antibodies were diluted to 80 nM concentration in 10 mM sodium acetate buffer pH 4.5 and immobilized to the chip at 30 μL/min for 50 s. Chip was inactivated with ethanolamine for 300 s at 25 μL/min. The analytes (e.g., SIRP-α from different species, SIRP-β, SIRP-γ) were injected in a “one-shot” kinetic mode at nominal concentrations of 100, 33, 11, 3.7, 1.2 and 0 nM. Association times were monitored for 90 s at 100 μL/min, and dissociation times were monitored for 1200 s. The surfaces were regenerated with a 2:1 v/v blend of Pierce IgG elution buffer/4M NaCl. […]

[2] = molecular target: T2, C57BL/6 mouse SIRP-α D1 domain; experiment: SPR, antibody immobilised on GLC chip
Description: as §1, §2

human SIRPγ isoform 1 [3] = molecular target: T8, human SIRPγ isoform 1 (human, UniProt Q9P1W8 29-147); experiment: SPR, antibody immobilised on GLC chip
T8 construct: also called sirpg; sirp-g
Description: as §1, §2
T8 sequence (Q9P1W8 29-147 limits assumed): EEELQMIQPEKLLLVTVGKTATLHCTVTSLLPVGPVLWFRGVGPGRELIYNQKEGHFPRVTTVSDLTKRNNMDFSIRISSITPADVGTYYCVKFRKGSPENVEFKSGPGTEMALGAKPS

[4] = molecular target: T9, human SIRP-α v1 D1 domain (human, UniProt P78324 31-149); experiment: SPR, antibody immobilised on GLC chip
T9 construct: also called human v1; human α v1
T9 sequence (P78324 31-149 limits assumed): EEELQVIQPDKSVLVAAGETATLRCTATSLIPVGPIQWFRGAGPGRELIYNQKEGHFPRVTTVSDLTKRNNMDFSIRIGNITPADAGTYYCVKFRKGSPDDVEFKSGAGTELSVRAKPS
Description: as §1, §2

[5] = molecular target: T10, human SIRP-α v2 D1 domain (human); experiment: SPR, antibody immobilised on GLC chip
T10 construct: also called human v2; human α v2
T10 sequence (chain, as listed by the source limits assumed): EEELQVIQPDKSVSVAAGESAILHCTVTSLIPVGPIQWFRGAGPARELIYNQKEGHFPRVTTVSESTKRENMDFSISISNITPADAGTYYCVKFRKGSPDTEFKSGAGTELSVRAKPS
Description: as §1, §2

[6] = molecular target: T3, NOD mouse SIRP-α D1 domain; experiment: SPR, antibody immobilised on GLC chip
Description: as §1, §2

cynomolgus SIRP-α = molecular target: T4, cynomolgus SIRP-α; experiment: SPR, antibody on GLC chip
In short: (§3)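 Protein A-purified antibodies were diluted to 80 nM in 10 mM sodium acetate pH 4.5 and amine-coupled (~1000 RU) to a GLC chip of a ProteOn XPR36 biosensor. SIRP analytes were injected one-shot at 100, 33, 11, 3.7, 1.2 and 0 nM in PBS pH 7.4 with 0.01% Tween-20 at 25° C. Association ran 90 s at 100 μL/min and dissociation 1200 s. KD came from double-referenced data fitted globally to a Langmuir model, as kd/ka.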

human SIRP-α v1 = molecular target: T11, human SIRP-α v1 (human, UniProt P78324 31-149); experiment: SPR, antibody on GLC chip
T11 construct: also called Human v1; Human V1
T11 sequence (P78324 31-149 limits assumed): as the sequence (P78324 31-149 limits assumed) above
In short: as §3

human SIRPβ isoform 1 = molecular target: T12, human SIRPβ isoform 1 (human, UniProt O00241 30-148); experiment: SPR, antibody on GLC chip
T12 construct: also called Beta; Human SIRPb
T12 sequence (O00241 30-148 limits assumed): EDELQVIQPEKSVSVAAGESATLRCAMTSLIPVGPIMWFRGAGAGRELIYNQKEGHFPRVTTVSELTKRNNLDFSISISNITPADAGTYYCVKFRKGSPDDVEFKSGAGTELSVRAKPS
In short: as §3

human SIRP-α v2 = molecular target: T13, human SIRP-α v2 (human); experiment: SPR, antibody on GLC chip
T13 construct: also called Human v2; Human V2
T13 sequence (chain, as listed by the source limits assumed): as the sequence (chain, as listed by the source limits assumed) above
In short: as §3

human SIRPγ isoform 1 [7] = molecular target: T14, human SIRPγ isoform 1 (human, UniProt Q9P1W8 29-147); experiment: SPR, antibody on GLC chip
T14 construct: also called Gamma; Human SIRPg
In short: as §3
T14 sequence (Q9P1W8 29-147 limits assumed): as the sequence (Q9P1W8 29-147 limits assumed) above

BL6 mouse SIRP-α = molecular target: T5, BL6 mouse SIRP-α; experiment: SPR, antibody on GLC chip
In short: as §3

BALBc mouse SIRP-α = molecular target: T6, BALBc mouse SIRP-α; experiment: SPR, antibody on GLC chip
In short: as §3

NOD mouse SIRP-α = molecular target: T7, NOD mouse SIRP-α; experiment: SPR, antibody on GLC chip
In short: as §3

Row | Binder | Kd [1] | Kd [2] | Kd (human SIRPγ isoform 1 [3]) | Kd [4] | Kd [5] | Kd [6] | Kd (cynomolgus SIRP-α) | Kd (human SIRP-α v1) | Kd (human SIRPβ isoform 1) | Kd (human SIRP-α v2) | Kd (human SIRPγ isoform 1 [7]) | Kd (BL6 mouse SIRP-α) | Kd (BALBc mouse SIRP-α) | Kd (NOD mouse SIRP-α)
1 | antibody 136 variant Mut/mut (antibody, human IgG1, V domains shown, Human IgG1 with L234A/L235A/G237A/N297A; Labels are light chain/heavy chain) VH: EVQLVESGGGVVQPGRSLRLSCAASGFTFSSYDVNWVRQAPGKGLEWVSLISGSGEIIYYADSVKGRFTISRDNSKNTLYLQMNSLRAEDTAVYYCAKENNRYRFFDDWGQGTLVTVSS VL: EIVLTQSPGTLSLSPGERATLSCRASQSVYTYLAWYQQKPGQAPRLLIYGASSRATGIPDRFSGSGSGTEFTLTISSLQSEDFAVYYCQQYYDRPPLTFGGGTKVEIK | 2.67 nM | 21.6 nM | 28.8 nM | 7.32 nM | 12.7 nM | 5.42 nM |  |  |  |  |  |  |  | 
2 | antibody 136 variant MutRv_I2T/mut (antibody, human IgG1, V domains shown, Human IgG1 with L234A/L235A/G237A/N297A; Labels are light chain/heavy chain) VH: EVQLVESGGGVVQPGRSLRLSCAASGFTFSSYDVNWVRQAPGKGLEWVSLISGSGEIIYYADSVKGRFTISRDNSKNTLYLQMNSLRAEDTAVYYCAKENNRYRFFDDWGQGTLVTVSS VL: ETVLTQSPGTLSLSPGERATLSCRASQSVYTYLAWYQQKPGQAPRLLIYGASSRATGIPDRFSGSGSGTEFTLTISSLQSEDFAVYYCQQYYDRPPLTFGGGTKVEIK | 0.422 nM | 15.3 nM | 40 nM | 0.717 nM | 1.86 nM | 0.68 nM |  |  |  |  |  |  |  | 
3 | antibody 136 variant MutRv_S12T/mut (antibody, human IgG1, V domains shown, Human IgG1 with L234A/L235A/G237A/N297A; Labels are light chain/heavy chain) VH: EVQLVESGGGVVQPGRSLRLSCAASGFTFSSYDVNWVRQAPGKGLEWVSLISGSGEIIYYADSVKGRFTISRDNSKNTLYLQMNSLRAEDTAVYYCAKENNRYRFFDDWGQGTLVTVSS VL: EIVLTQSPGTLTLSPGERATLSCRASQSVYTYLAWYQQKPGQAPRLLIYGASSRATGIPDRFSGSGSGTEFTLTISSLQSEDFAVYYCQQYYDRPPLTFGGGTKVEIK | 2.09 nM | 16.3 nM | 66.7 nM | 4.88 nM | 10.5 nM | 2.85 nM |  |  |  |  |  |  |  | 
4 | antibody 136 variant, light chain Mut_I2T / heavy chain Mut_V34M (antibody, V domains shown) VH: EVQLVESGGGVVQPGRSLRLSCAASGFTFSSYDMNWVRQAPGKGLEWVSLISGSGEIIYYADSVKGRFTISRDNSKNTLYLQMNSLRAEDTAVYYCAKENNRYRFFDDWGQGTLVTVSS VL: ETVLTQSPGTLSLSPGERATLSCRASQSVYTYLAWYQQKPGQAPRLLIYGASSRATGIPDRFSGSGSGTEFTLTISSLQSEDFAVYYCQQYYDRPPLTFGGGTKVEIK |  |  |  |  |  |  | 2.11 nM | 0.551 nM | 2.22 nM | 1.74 nM | 33.5 nM | 13.8 nM | 0.361 nM | 0.596 nM
5 | antibody 136 variant MutRv_Q38E/mut (antibody, human IgG1, V domains shown, Human IgG1 with L234A/L235A/G237A/N297A; Labels are light chain/heavy chain) VH: EVQLVESGGGVVQPGRSLRLSCAASGFTFSSYDVNWVRQAPGKGLEWVSLISGSGEIIYYADSVKGRFTISRDNSKNTLYLQMNSLRAEDTAVYYCAKENNRYRFFDDWGQGTLVTVSS VL: EIVLTQSPGTLSLSPGERATLSCRASQSVYTYLAWYQEKPGQAPRLLIYGASSRATGIPDRFSGSGSGTEFTLTISSLQSEDFAVYYCQQYYDRPPLTFGGGTKVEIK | 2.98 nM | 33.1 nM | 19.3 nM | 6.18 nM | 12.5 nM | 5.98 nM |  |  |  |  |  |  |  | 
6 | antibody 136 variant MutRv_S22T/mut (antibody, human IgG1, V domains shown, Human IgG1 with L234A/L235A/G237A/N297A; Labels are light chain/heavy chain) VH: EVQLVESGGGVVQPGRSLRLSCAASGFTFSSYDVNWVRQAPGKGLEWVSLISGSGEIIYYADSVKGRFTISRDNSKNTLYLQMNSLRAEDTAVYYCAKENNRYRFFDDWGQGTLVTVSS VL: EIVLTQSPGTLSLSPGERATLTCRASQSVYTYLAWYQQKPGQAPRLLIYGASSRATGIPDRFSGSGSGTEFTLTISSLQSEDFAVYYCQQYYDRPPLTFGGGTKVEIK | 1.64 nM | 13.3 nM | 61.7 nM | 4.99 nM | 8.28 nM | 2.44 nM |  |  |  |  |  |  |  | 
